In this series the test system is MS2 coat protein. The series can be described thus: apparent KD of MS2 coat protein; designed switch direction (-1 OFF switch, 1 ON switch): 1; higher = weaker reporter binding. The gist of the method: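 For each design, the apparent KD is the median over clusters of curves fitted to normalised cluster fluorescence. Clusters held RNA switches with common flanks, transcribed on Illumina chips by stalled E. coli RNA polymerase. These were titrated with SNAP-549-labelled MS2 coat protein, doubling from 0.7 or 1.5 nM to 3 µM, without input, with 200 uM small-molecule ligand, or with an oligonucleotide input.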

The mark [1] stands for this setting: input ligand: microRNA oligo, concentration not stated.

For “GCGAGCGUACUUGCAACAUGAGGAUCACCCAUGUUAACUGGACAGGAUAUGGUACCGUUUCGGUACCAGAAGGGUUCCUCCAUG [JL SSNG3 3.61] (Eterna round: R96, puzzle: Same State NG 3)”, the “apparent KD of MS2 coat protein” value by setting is: (input ligand: FMN 200 uM) 160 nM; under setting [1], 134 nM; (input ligand: none) 135 nM.
In the same order, the values of “GCGGAACCUAACAUGAGGAUCACCCAUGUUCCGGAAACGGCACAGGAUAUCUGUCCGAAAAGGUCAGAGAAGGGUGAAAACCGC [Fiskers NG3ss - 95] (Eterna round: R96, puzzle: Same State NG 3)” are 131 nM, 307 nM and 390 nM.
In the same order, the values of “GCGGAACGGGCCGACAUGAGGAUCACCCAUGUGGCCUCAUGUAAGGAUAUCGGGAAGAAGAAAACCGAGAAGGUACGGUGACGC [AK SSNG3-V2-31] (Eterna round: R96, puzzle: Same State NG 3)” are 47.2 nM, 15.6 nM and 107 nM.
Consider “GCGUUUAACGUAGGAUAUCGAGCUACAUGAGGAUCACCCAUGUCUUUGUAAAGUUUUUUUAAUUCCGAGAAGGACGUAUUGCAU [JR_SSNG2_Sub073] (Eterna round: R96, puzzle: Same State NG 2)”, for which the “apparent KD of MS2 coat protein” value was 27.1 nM (input ligand: FMN 200 uM), 27.2 nM under setting [1] and 35.9 nM (input ligand: none).
In the same order, the values of “GCUACCAUUGAAGCCAACAUGAGGAUCACCCAUGUAUGUUGGUAGGAUAUCGAUUGCUUUGCGAUCGAGAAGGGCUAAGGUAGC [JL SSNG3 1.28] (Eterna round: R96, puzzle: Same State NG 3)” are 52.6 nM, 48 nM and 45.1 nM.
In the same order, the values of “GCUAGAAAUAAAGCCAACAUGAGGAUCACCCAUGUAUGUUGGUAGGAUAUCGUUUGCAAAGCAAACGAGAAGGGCUAAUCUAGC [Mat - Same State NG 3 - JL Mod - D65] (Eterna round: R96, puzzle: Same State NG 3)” are 76.4 nM, 63.8 nM and 69.8 nM.
In the same order, the values of “GCUAGAAUAAAUGCCUACAUGAGGAUCACCCAUGUAUGUAGGCAGGAUAUCGUUUGCAAAGCAAACGAGAAGGGCCUUACUAGC [Mat - Same State NG 3 - JL Mod - D29] (Eterna round: R96, puzzle: Same State NG 3)” are 21.5 nM, 43 nM and 55.7 nM.
“GCUAGAAUCAAAGCCAACAUGAGGAUCACCCAUGUAUGUUGGUAGGAUAUCGUUUGCUUUGCAAACGAGAAGGACCAAACUAGC [SameState NG3 #1] (Eterna round: R96, puzzle: Same State NG 3)”: the “apparent KD of MS2 coat protein” value was 30.2 nM (input ligand: FMN 200 uM), 75.3 nM under setting [1] and 87.1 nM (input ligand: none).
Take “GCUAGAAUUAAAGCCAACAUGAGGAUCACCCAUGUAUGUUGGCAGGAUAUCGUUUGCUUUGCAAACGAGAAGGGCUAAACUAGC [JL SSNG3 1.02] (Eterna round: R96, puzzle: Same State NG 3)”: the “apparent KD of MS2 coat protein” value runs as follows: (input ligand: FMN 200 uM) 114 nM; under setting [1], 121 nM; (input ligand: none) 182 nM.
In the same order, the values of “GCUAGAAUUAAAGCCAACAUGAGGAUCACCCAUGUAUGUUGGUAGGAUAUCGUUUGCUUUGCAAACGAGAAGGGCUAAACUAGC [JL SSNG3 1.06] (Eterna round: R96, puzzle: Same State NG 3)” are 78.3 nM, 58.5 nM and 73.1 nM.
In the same order, the values of “GCUCGAAUCACAGCCAACAUGAGGAUCACCCAUGUAUGUUGGUAGGAUAUCGUUUCUAAGGGAAACGAGAAGGGCCGAACGAGC [SameState NG3 #10] (Eterna round: R96, puzzle: Same State NG 3)” are 171 nM, 151 nM and 163 nM.

These data come from the supplement of paper PMC9170038.
